The source of these data is PMC10054699 (Vaccines, 2023).

This data set concerns the molecule itself. Nature of the data set: SEC; Superdex 200 column; purified F1. (SEC sorts molecules by how far they enter the pores of the column.)

B1: polymeric F1 protein (F1 capsular antigen of Yersinia pestis) (natural protein)
chain: ADLTASTTATATLVEPARITLTYKEGAPITIMDNGNIDTELLVGTLTLGGYKTGTTSTSVNFTDAAGDPMYLTFTSQDGNNHQFTTKVIGKDSRDFDISPKVNGENLVGDDVVLATGSQDFFVRSIGSKGGKLAAGKYTDAVTVTVSNQ
notes: also called PolyF1; polyF1
With B1, the binding result was “binds”.
